Molecular target: chimeric TSH receptor (chimeric MC4 receptor) expressed on CHO-MC4 cells (human/rat chimera) (UniProt P16473)
Assay: cell-based or functional assay

Chain of thyroid blocking monoclonal antibody K1-70 (VH): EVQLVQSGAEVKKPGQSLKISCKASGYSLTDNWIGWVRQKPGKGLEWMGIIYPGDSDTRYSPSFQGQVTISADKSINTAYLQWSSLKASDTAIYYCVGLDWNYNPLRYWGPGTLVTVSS
Chain of thyroid blocking monoclonal antibody K1-70 (VL): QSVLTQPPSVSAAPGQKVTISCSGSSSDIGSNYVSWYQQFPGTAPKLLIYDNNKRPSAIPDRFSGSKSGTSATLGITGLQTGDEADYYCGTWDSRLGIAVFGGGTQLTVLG

For follicle stimulating hormone (ligand), the % inhibition, TBI assay, FSH 116.3 mIU/ml in reaction buffer (no K1-70) was 0%, the % inhibition, TBI assay, FSH 232.6 mIU/ml in reaction buffer (no K1-70) was 1% and the RLU, TBI assay, FSH 116.3 mIU/ml in reaction buffer (no K1-70) was 16500 RLU. It also gave an RLU, TBI assay, FSH 232.6 mIU/ml in reaction buffer (no K1-70) of 16300 RLU.

In the case of “human chorionic gonadotropin (from UniProt P01215 25-116; P0DN86 21-165) (ligand)”, the % inhibition, TBI assay, hCG 8000 mIU/ml in reaction buffer (no K1-70) is reported as -7%, the % inhibition, TBI assay, hCG 16000 mIU/ml in reaction buffer (no K1-70) is reported as 0% and the RLU, TBI assay, hCG 8000 mIU/ml in reaction buffer (no K1-70) is reported as 17500 RLU. The RLU, TBI assay, hCG 16000 mIU/ml in reaction buffer (no K1-70) was 16500 RLU.

Substance luteinizing hormone (ligand) has a % inhibition, TBI assay, LH 20 mIU/ml in reaction buffer (no K1-70) of -5%, a % inhibition, TBI assay, LH 40 mIU/ml in reaction buffer (no K1-70) of -6% and an RLU, TBI assay, LH 20 mIU/ml in reaction buffer (no K1-70) of 17300 RLU. It also gave an RLU, TBI assay, LH 40 mIU/ml in reaction buffer (no K1-70) of 17400 RLU.

“thyroid blocking monoclonal antibody K1-70” showed a % inhibition, TBI assay, 2.5 ng K1-70 (TBI positive) of 86%, a % inhibition, TBI assay, K1-70 0.0025 ng/ml of -6% and a % inhibition, TBI assay, K1-70 0.1 ng/ml of 6%. It also gave a % inhibition, TBI assay, K1-70 0.4 ng/ml of 25%, a % inhibition, TBI assay, K1-70 0.6 ng/ml of 27% and a % inhibition, TBI assay, K1-70 1 ng/ml of 38%. The % inhibition, TBI assay, K1-70 1.5 ng/ml was 55%, the % inhibition, TBI assay, K1-70 1.56 ng/ml was 60% and the % inhibition, TBI assay, K1-70 5 ng/ml was 102%. For the same substance, the % inhibition, TBI assay, K1-70 10 ng/ml was 114%, the % inhibition, TBI assay, K1-70 12.5 ng/ml was 104% and the % inhibition, TBI assay, K1-70 25 ng/ml was 104%. For the same substance, the % inhibition, TBI assay, K1-70 50 ng/ml was 103%, the % inhibition, TBI assay, K1-70 100 ng/ml was 101% and the % inhibition, TBI assay, K1-70 only 100% (5 ng/ml K1-70) was 94%. It also gave a % inhibition, TBI assay, mixture M22:K1-70 10:90 of 77%, a % inhibition, TBI assay, mixture M22:K1-70 20:80 of 51% and a % inhibition, TBI assay, mixture M22:K1-70 30:70 of 27%. For the same substance, the % inhibition, TBI assay, mixture M22:K1-70 50:50 was -37%, the % inhibition, TBI assay, mixture M22:K1-70 60:40 was -59% and the % inhibition, TBI assay, mixture M22:K1-70 90:10 was -98%. For the same substance, the IC50, TBI bioassay was 1.34 ng/mL, the IC50 of TBI assay with CHO-MC4 cells was 1.34 ng/mL and the RLU, TBI assay, 2.5 ng K1-70 (TBI positive) was 5530 RLU. It also gave an RLU, TBI assay, 2.5 ng K1-70 with FSH 116.3 mIU/ml of 6100 RLU, an RLU, TBI assay, 2.5 ng K1-70 with FSH 232.6 mIU/ml of 5810 RLU and an RLU, TBI assay, 2.5 ng K1-70 with LH 20 mIU/ml of 6100 RLU. For the same substance, the RLU, TBI assay, 2.5 ng K1-70 with LH 40 mIU/ml was 5770 RLU, the RLU, TBI assay, 2.5 ng K1-70 with hCG 8000 mIU/ml was 6000 RLU and the RLU, TBI assay, 2.5 ng K1-70 with hCG 16000 mIU/ml was 5950 RLU. It also gave an RLU, TBI assay, K1-70 0.0025 ng/ml of 16400 RLU, an RLU, TBI assay, K1-70 0.05 ng/ml of 15700 RLU and an RLU, TBI assay, K1-70 0.1 ng/ml of 13600 RLU. It also gave an RLU, TBI assay, K1-70 0.2 ng/ml of 14100 RLU, an RLU, TBI assay, K1-70 0.4 ng/ml of 12800 RLU and an RLU, TBI assay, K1-70 0.6 ng/ml of 12600 RLU. It also gave an RLU, TBI assay, K1-70 0.8 ng/ml of 12700 RLU, an RLU, TBI assay, K1-70 1 ng/ml of 11300 RLU and an RLU, TBI assay, K1-70 1.5 ng/ml of 9420 RLU. For the same substance, the RLU, TBI assay, K1-70 2 ng/ml was 7940 RLU, the RLU, TBI assay, K1-70 2.5 ng/ml was 6620 RLU and the RLU, TBI assay, K1-70 5 ng/ml was 4010 RLU. It also gave an RLU, TBI assay, K1-70 10 ng/ml of 2700 RLU, an RUT, TBI assay, K1-70 only 100% (5 ng/ml K1-70) of 2420 RUT and an RUT, TBI assay, mixture M22:K1-70 10:90 of 4000 RUT. The RUT, TBI assay, mixture M22:K1-70 20:80 was 6470 RUT, the RUT, TBI assay, mixture M22:K1-70 30:70 was 8650 RUT and the RUT, TBI assay, mixture M22:K1-70 40:60 was 12300 RUT. The RUT, TBI assay, mixture M22:K1-70 50:50 was 14600 RUT, the RUT, TBI assay, mixture M22:K1-70 60:40 was 16700 RUT and the RUT, TBI assay, mixture M22:K1-70 70:30 was 17600 RUT. For the same substance, the RUT, TBI assay, mixture M22:K1-70 80:20 was 19600 RUT, the RUT, TBI assay, mixture M22:K1-70 90:10 was 20400 RUT and the sensitivity of TBI bioassay against TRAb assay was greater than 20 fold.

For “thyroid stimulating monoclonal antibody M22”, the % inhibition, TBI assay, M22 0.02 ng/ml was 2%, the % inhibition, TBI assay, M22 0.04 ng/ml was 0% and the % inhibition, TBI assay, M22 0.05 ng/ml was -6%. It also gave a % inhibition, TBI assay, M22 0.06 ng/ml of -11%, a % inhibition, TBI assay, M22 0.08 ng/ml of -21% and a % inhibition, TBI assay, M22 0.1 ng/ml of -27%. It also gave a % inhibition, TBI assay, M22 0.15 ng/ml of -32%, a % inhibition, TBI assay, M22 0.2 ng/ml of -52% and a % inhibition, TBI assay, M22 0.25 ng/ml of -50%. For the same substance, the % inhibition, TBI assay, M22 0.3 ng/ml was -65%, the % inhibition, TBI assay, M22 0.35 ng/ml was -63% and the % inhibition, TBI assay, M22 0.4 ng/ml was -64%. For the same substance, the % inhibition, TBI assay, M22 0.6 ng/ml was -66%, the % inhibition, TBI assay, M22 0.8 ng/ml was -73% and the % inhibition, TBI assay, M22 1.2 ng/ml was -83%. For the same substance, the % inhibition, TBI assay, M22 only 100% (0.8 ng/ml M22) was -106%, the EC50 of stimulatory activity, TBI assay was 0.16 ng/mL and the EC50 of stimulatory activity, TSI assay was 0.14 ng/mL. For the same substance, the RLU, TBI assay, M22 0.02 ng/ml was 9070 RLU, the RLU, TBI assay, M22 0.04 ng/ml was 9260 RLU and the RLU, TBI assay, M22 0.05 ng/ml was 9690 RLU. The RLU, TBI assay, M22 0.06 ng/ml was 10100 RLU, the RLU, TBI assay, M22 0.08 ng/ml was 10900 RLU and the RLU, TBI assay, M22 0.1 ng/ml was 11300 RLU. It also gave an RLU, TBI assay, M22 0.15 ng/ml of 11700 RLU, an RLU, TBI assay, M22 0.2 ng/ml of 13300 RLU and an RLU, TBI assay, M22 0.25 ng/ml of 13100 RLU. For the same substance, the RLU, TBI assay, M22 0.3 ng/ml was 14300 RLU, the RLU, TBI assay, M22 0.35 ng/ml was 14100 RLU and the RLU, TBI assay, M22 0.4 ng/ml was 14200 RLU. The RLU, TBI assay, M22 0.6 ng/ml was 14400 RLU, the RLU, TBI assay, M22 0.8 ng/ml was 15000 RLU and the RLU, TBI assay, M22 1.2 ng/ml was 15700 RLU. It also gave an RUT, TBI assay, M22 only 100% (0.8 ng/ml M22) of 21200 RUT, an SRR % (TBI), M22 0.02 ng/ml of 61% and an SRR % (TBI), M22 0.04 ng/ml of 95%. For the same substance, the SRR % (TBI), M22 0.05 ng/ml was 111%, the SRR % (TBI), M22 0.06 ng/ml was 122% and the SRR % (TBI), M22 0.08 ng/ml was 146%. It also gave an SRR % (TBI), M22 0.1 ng/ml of 180%, an SRR % (TBI), M22 0.15 ng/ml of 236% and an SRR % (TBI), M22 0.2 ng/ml of 270%. It also gave an SRR % (TBI), M22 0.25 ng/ml of 283%, an SRR % (TBI), M22 0.3 ng/ml of 302% and an SRR % (TBI), M22 0.35 ng/ml of 315%. It also gave an SRR % (TBI), M22 0.4 ng/ml of 332%, an SRR % (TBI), M22 0.6 ng/ml of 368% and an SRR % (TBI), M22 0.8 ng/ml of 368%. The SRR % (TBI), M22 1.2 ng/ml was 365%.

From patent publication US20200340991A1
